Test results taken from patent US20120316071A1 (published 2012).

T1: rHuman Erythropoietin R/Fc Chimera, CF (R&D Systems Cat#963-ER) (human, UniProt P19235 25-250)
T1 construct: Bought recombinant protein; also called EPO R; EPO R/Fc
T1 sequence (looked up): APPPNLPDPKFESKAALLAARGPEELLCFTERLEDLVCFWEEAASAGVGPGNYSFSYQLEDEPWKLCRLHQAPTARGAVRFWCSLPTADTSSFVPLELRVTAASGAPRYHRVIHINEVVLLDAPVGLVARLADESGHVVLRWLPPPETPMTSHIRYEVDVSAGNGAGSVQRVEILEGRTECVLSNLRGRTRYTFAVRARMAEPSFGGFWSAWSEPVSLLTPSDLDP

T2: rHuman Erythropoietin R/Fc Chimera, CF (R&D Systems Cat#963-ER) (human, UniProt P19235 25-250)
T2 construct: Bought protein; also called EPO R; EPO R/Fc; Fc part of the bought chimera not given
T2 sequence (looked up): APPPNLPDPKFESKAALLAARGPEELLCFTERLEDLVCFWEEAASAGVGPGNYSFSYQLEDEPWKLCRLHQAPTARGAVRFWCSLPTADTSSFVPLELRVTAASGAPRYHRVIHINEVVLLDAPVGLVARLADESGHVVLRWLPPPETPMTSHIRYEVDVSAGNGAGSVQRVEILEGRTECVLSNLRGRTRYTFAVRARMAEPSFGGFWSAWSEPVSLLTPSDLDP


Experiments:
[1] = molecular target: T3, rHuman P-Cadherin/Fc Chimera, CF (R&D Systems Cat#861-PC) (human, UniProt P22223 108-654); test: ECL Multispot (MSD) assay, antigen spotted on plate, 10 nM Fab;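 note: purified Fab bound to antigen spots for 1 h at 20 °C, then TAG detection antibody, electrochemiluminescence compared with each well's blank, ratio of 4 or more marks a hit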
T3 construct: Bought recombinant protein

[2] = molecular target: T4, rHuman HGF R/c-MET/Fc Chimera, CF (R&D Systems Cat#358-MT/CF) (human, UniProt P08581 25-932); test: as above
T4 construct: Bought recombinant protein; also called HGF R/Fc

[3] = molecular target: T5, rHuman CD44/Fc Chimera, CF (R&D Systems Cat#3660-CD) (human, UniProt P16070 21-220); test: as above
T5 construct: Bought recombinant protein

[4] = molecular target: T6, rHuman ErbB2/Fc Chimera, CF (R&D Systems Cat#1129-ER) (human, UniProt P04626 23-652); test: as above
T6 construct: Bought recombinant protein

[5] = molecular target: T7, Recombinant Human DLL4 (R&D Systems Cat#1506-D4/CF) (human, UniProt Q9NR61 27-524); test: as above
T7 construct: Bought recombinant protein; also called delta-like protein 4; rHuman DLL4

[6] = molecular target: T1, rHuman Erythropoietin R/Fc Chimera, CF …; test: as above
[7] = molecular target: T8, rHuman IGF-1 sR (insulin-like growth factor-1 soluble receptor), CF (R&D Systems Cat#391-GR) (human, UniProt P08069 31-932); test: as above
T8 construct: Bought recombinant soluble receptor

[8] = molecular target: T9, rHuman EGF R/Fc Chimera, CF (R&D Systems Cat#344-ER) (human, UniProt P00533 25-645); test: as above
T9 construct: Bought recombinant protein

[9] = molecular target: T7, Recombinant Human DLL4 (R&D Systems …); test: ECL (MSD) binding assay, DLL4 signal divided by blank, repeat experiment
[10] = molecular target: T7, Recombinant Human DLL4 (R&D Systems …); test: ECL (MSD) binding assay, immobilised DLL4, repeat experiment
[11] = molecular target: T10, rHuman P-Cadherin/Fc Chimera, CF (R&D Systems Cat#861-PC) (human, UniProt P22223 108-654); test: ECL multispot (MSD) binding assay; antigen spotted on plate, Fab in solution, Ru-labelled anti-kappa detection;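 note: purified Fab in 1% BSA TBST incubated 1 h at 20 °C with shaking, signal compared with each well's blank, signal/blank ratio of 4 or above counted as binder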
T10 construct: Bought from R&D Systems; Fc part of the bought chimera not given

[12] = molecular target: T11, rHuman EGF R/Fc Chimera, CF (R&D Systems Cat#344-ER) (human, UniProt P00533 25-645); test: as above
T11 construct: Bought from R&D Systems; also called epidermal growth factor receptor; Fc part of the bought chimera not given

[13] = molecular target: T12, rHuman IGF-1 sR, CF (R&D Systems Cat#391-GR) (human, UniProt P08069 31-932); test: as above
T12 construct: Bought from R&D Systems as a soluble receptor; also called insulin-like growth factor-1 soluble receptor

[14] = molecular target: T13, Recombinant Human DLL4 (R&D Systems Cat#1506-D4/CF) (human, UniProt Q9NR61 27-524); test: as above
T13 construct: Bought from R&D Systems; also called delta-like protein 4; rHuman DLL4

[15] = molecular target: T14, rHuman HGF R/c-MET/Fc Chimera, CF (R&D Systems Cat#358-MT/CF) (human, UniProt P08581 25-932); test: as above
T14 construct: Bought from R&D Systems; also called HGF R/Fc; hepatocyte growth factor receptor; Fc part of the bought chimera not given

[16] = molecular target: T15, rHuman ErbB2/Fc Chimera, CF (R&D Systems Cat#1129-ER) (human, UniProt P04626 23-652); test: as above
T15 construct: Bought from R&D Systems; also called human epidermal growth factor 2 receptor; Fc part of the bought chimera not given

[17] = molecular target: T2, rHuman Erythropoietin R/Fc Chimera, CF …; test: ECL multispot (MSD) assay; antigen spotted on plate, Fab in solution;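 note: purified Fab incubated 1 hour at 20 °C in 1% BSA TBST on antigen-coated wells, detected with TAG antibody, ECL read on Sector Imager 2400, compared to each well's blank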
[18] = molecular target: T16, rHuman IGF-1 sR, (IGF-1 sR), CF (R&D Systems Cat#391-GR) (human, UniProt P08069 31-932); test: as above
T16 construct: Bought soluble receptor; also called insulin-like growth factor-1 soluble receptor

[19] = molecular target: T17, Recombinant Human DLL4 (R&D Systems Cat#1506-D4/CF) (human, UniProt Q9NR61 27-524); test: as above
T17 construct: Bought recombinant protein; also called delta-like protein 4; rHuman DLL4

[20] = molecular target: T18, rHuman CD44/Fc Chimera, CF (R&D Systems Cat#3660-CD) (human, UniProt P16070 21-220); test: as above
T18 construct: Bought protein; Fc part of the bought chimera not given

[21] = molecular target: T19, rHuman HGF R/c-MET/Fc Chimera, CF (R&D Systems Cat#358-MT/CF) (human, UniProt P08581 25-932); test: as above
T19 construct: Bought protein; also called HGF R/Fc; hepatocyte growth factor receptor; Fc part of the bought chimera not given

[22] = molecular target: T20, rHuman ErbB2/Fc Chimera, CF (R&D Systems Cat#1129-ER) (human, UniProt P04626 23-652); test: as above
T20 construct: Bought protein; also called human epidermal growth factor 2 receptor; Fc part of the bought chimera not given

[23] = molecular target: T21, rHuman Notch-1/Fc Chimera, CF (R&D Systems Cat#3647-TK) (human, UniProt P46531 19-526); test: as above
T21 construct: Bought protein; Fc part of the bought chimera not given

[24] = molecular target: T22, rHuman EGF R/Fc Chimera, CF (R&D Systems Cat#344-ER) (human, UniProt P00533 25-645); test: as above
T22 construct: Bought protein; also called epidermal growth factor receptor; Fc part of the bought chimera not given

[25] = molecular target: T23, rHuman P-Cadherin/Fc Chimera, CF (R&D Systems Cat#861-PC) (human, UniProt P22223 108-654); test: as above
T23 construct: Bought protein; Fc part of the bought chimera not given

Row | Binder | ECL signal [17] | ECL signal [18] | ECL signal [19] | ECL signal [20] | ECL signal [21] | ECL signal [22] | ECL signal [23] | ECL signal [24] | ECL signal [25] | also measured
1 | Fab VH1-46_IGHD6-6*01_IGHJ1*01 S102A/S103P/S104F/H111F F29A & L6_IGKJ1*01 (Fab, V domains shown, Fab as for m1 (CH1 with His6/Flag tags, kappa CL); also called APFF F29A) VH: QVQLVQSGAEVKKPGASVKVSCKASGYTATSYYMHWVRQAPGQGLEWMGIINPSGGSTSYAQKFQGRVTMTRDTSTSTVYMELSSLRSEDTAVYYCAREEYAPFSAEYFQFWGQGTLVTVSS VL: not shown | – | – | – | – | – | – | – | – | – | ECL signal [1]: 276; ECL signal [2]: 404; ECL signal [3]: 414; ECL signal [4]: 244; ECL signal [5]: 80700; ECL signal [6]: 466; ECL signal [7]: 315; ECL signal [8]: 293; Signal/Noise [9]: 238; ECL signal [10]: 109000
2 | Fab VH1-46_IGHD6-6*01_IGHJ1*01 S102A/S103P/S104F/H111F & L6_IGKJ1*01 (Fab, V domains shown, Tested as a Fab made in E. coli; The heavy chain vector (Plasmid A) adds CH1 with His6 and Flag tags; The light chain vector (Plasmid C) adds kappa CL; also called APFF; H:APFF & L:wt) VH: QVQLVQSGAEVKKPGASVKVSCKASGYTFTSYYMHWVRQAPGQGLEWMGIINPSGGSTSYAQKFQGRVTMTRDTSTSTVYMELSSLRSEDTAVYYCAREEYAPFSAEYFQFWGQGTLVTVSS VL: not shown | – | – | – | – | – | – | – | – | – | ECL signal [11]: 318; ECL signal [12]: 279; ECL signal [13]: 342; ECL signal [14]: 197000; ECL signal [15]: 252; ECL signal [16]: 263
3 | Fab VH1-46_IGHD6-6*01_IGHJ1*01 S102A/S103P/S104F (APF) & L6_IGKJ1*01 S30W (Fab, V domains shown, Tested as Fab made in E. coli; The heavy chain vector (Plasmid A) adds CH1 with His and Flag tags, the kappa vector (Plasmid C) adds CL kappa; also called APF / S30W) VH: QVQLVQSGAEVKKPGASVKVSCKASGYTFTSYYMHWVRQAPGQGLEWMGIINPSGGSTSYAQKFQGRVTMTRDTSTSTVYMELSSLRSEDTAVYYCAREEYAPFSAEYFQHWGQGTLVTVSS VL: EIVLTQSPATLSLSPGERATLSCRASQSVWSYLAWYQQKPGQAPRLLIYDASNRATGIPARFSGSGSGTDFTLTISSLEPEDFAVYYCQQRSNWPPWTFGQGTKVEIKR | 30 ECL signal | 157 ECL signal | 791 ECL signal | 186 ECL signal | 62 ECL signal | 73 ECL signal | 105 ECL signal | 132 ECL signal | 39 ECL signal | –
4 | Fab VH1-46_IGHD6-6*01_IGHJ1*01 S102A/S103P/S104F (APF) & L6_IGKJ1*01 S30L (Fab, V domains shown, Tested as Fab made in E. coli; The heavy chain vector (Plasmid A) adds CH1 with His and Flag tags, the kappa vector (Plasmid C) adds CL kappa; also called APF / S30L) VH: QVQLVQSGAEVKKPGASVKVSCKASGYTFTSYYMHWVRQAPGQGLEWMGIINPSGGSTSYAQKFQGRVTMTRDTSTSTVYMELSSLRSEDTAVYYCAREEYAPFSAEYFQHWGQGTLVTVSS VL: EIVLTQSPATLSLSPGERATLSCRASQSVLSYLAWYQQKPGQAPRLLIYDASNRATGIPARFSGSGSGTDFTLTISSLEPEDFAVYYCQQRSNWPPWTFGQGTKVEIKR | 259 ECL signal | 193 ECL signal | 1630 ECL signal | 240 ECL signal | 250 ECL signal | 244 ECL signal | 296 ECL signal | 288 ECL signal | 260 ECL signal | –
5 | Fab VH1-46_IGHD6-6*01_IGHJ1*01 S102A/S103P/S104F (APF) & L6_IGKJ1*01 S30T (Fab, V domains shown, Tested as Fab made in E. coli; The heavy chain vector (Plasmid A) adds CH1 with His and Flag tags, the kappa vector (Plasmid C) adds CL kappa; also called APF / S30T) VH: QVQLVQSGAEVKKPGASVKVSCKASGYTFTSYYMHWVRQAPGQGLEWMGIINPSGGSTSYAQKFQGRVTMTRDTSTSTVYMELSSLRSEDTAVYYCAREEYAPFSAEYFQHWGQGTLVTVSS VL: EIVLTQSPATLSLSPGERATLSCRASQSVTSYLAWYQQKPGQAPRLLIYDASNRATGIPARFSGSGSGTDFTLTISSLEPEDFAVYYCQQRSNWPPWTFGQGTKVEIKR | 207 ECL signal | 204 ECL signal | 1020 ECL signal | 229 ECL signal | 297 ECL signal | 243 ECL signal | 127 ECL signal | 274 ECL signal | 195 ECL signal | –
6 | Fab VH1-46_IGHD6-6*01_IGHJ1*01 S102A/S103P/S104F (APF) & L6_IGKJ1*01 S30R (Fab, V domains shown, Tested as Fab made in E. coli; The heavy chain vector (Plasmid A) adds CH1 with His and Flag tags, the kappa vector (Plasmid C) adds CL kappa; also called APF / S30R) VH: QVQLVQSGAEVKKPGASVKVSCKASGYTFTSYYMHWVRQAPGQGLEWMGIINPSGGSTSYAQKFQGRVTMTRDTSTSTVYMELSSLRSEDTAVYYCAREEYAPFSAEYFQHWGQGTLVTVSS VL: EIVLTQSPATLSLSPGERATLSCRASQSVRSYLAWYQQKPGQAPRLLIYDASNRATGIPARFSGSGSGTDFTLTISSLEPEDFAVYYCQQRSNWPPWTFGQGTKVEIKR | 87 ECL signal | 86 ECL signal | 745 ECL signal | 89 ECL signal | 108 ECL signal | 35 ECL signal | 155 ECL signal | 140 ECL signal | 39 ECL signal | –
7 | Fab VH1-46_IGHD6-6*01_IGHJ1*01 S102A/S103P/S104F (APF) & L6_IGKJ1*01 (Fab, V domains shown, Tested as Fab made in E. coli; The heavy chain vector (Plasmid A) adds CH1 with His and Flag tags, the kappa vector (Plasmid C) adds CL kappa; also called APF / parent; H:APF & L:wt) VH: QVQLVQSGAEVKKPGASVKVSCKASGYTFTSYYMHWVRQAPGQGLEWMGIINPSGGSTSYAQKFQGRVTMTRDTSTSTVYMELSSLRSEDTAVYYCAREEYAPFSAEYFQHWGQGTLVTVSS VL: not shown | 105 ECL signal | 217 ECL signal | 803 ECL signal | 66 ECL signal | 86 ECL signal | 61 ECL signal | 135 ECL signal | 161 ECL signal | 117 ECL signal | –
